# From publication PMC8131916
# Tests used:
# [1] = target: MM_0014, cis-prenyltransferase from Methanosarcina mazei (tag-free) (Methanosarcina mazei); experiment: crystal structure; substrate-free MM_0014, hanging drop, Index No. 64 reagent with glycerol 3:1, 25 °C; space group C222_(1), two protein molecules per asymmetric unit; the same crystals soaked with IPP or DMAPP
# [2] = target: MM_0014, cis-prenyltransferase from Methanosarcina mazei (tag-free) (Methanosarcina mazei); experiment: crystal structure; MM_0014 cocrystallised with FPP and MgCl2 (co-FG), Index No. 89 reagent with glycerol 3:1, 20 °C; space group P2_(1)2_(1)2_(1), eight protein molecules per asymmetric unit; the same crystals soaked with DMAPP
substance,measurement,setting,value
"MM_0014, cis-prenyltransferase from Methanosarcina mazei (tag-free) (enzyme)",stoichiometry N,[1],2
same,stoichiometry N,[2],2
